# Assay results reported in paper PMC2561144 (Journal of Experimental Botany, 2008).
# B1: His6-AtRabD1 (natural protein)
# chain: not shown
# B2: His6-AtRabC2a (natural protein)
# chain: MGSSSGQSGYDLSFKILLIGDSGVGKSSLLVSFISSSVEDLAPTIGVDFKIKQLTVGGKRLKLTIWDTAGQERFRTLTSSYYRGAQGIILVYDVTRRETFTNLVDVWGKEIELYSTNQECVRMLVGNKVDRESERGVSREEGIALAKELNCMFLECSARTRQNVEQCFEELALKIMEVPSLLEEGSSAVKRNILKQKPEHQTNTQSGCCS
# Key:
# [1] = molecular target: T1, MYA2 tail 1, aa1049-aa1505, fused with GST (Arabidopsis thaliana, UniProt Q9LKB9 1049-1505); test: pull-down
# T1 sequence: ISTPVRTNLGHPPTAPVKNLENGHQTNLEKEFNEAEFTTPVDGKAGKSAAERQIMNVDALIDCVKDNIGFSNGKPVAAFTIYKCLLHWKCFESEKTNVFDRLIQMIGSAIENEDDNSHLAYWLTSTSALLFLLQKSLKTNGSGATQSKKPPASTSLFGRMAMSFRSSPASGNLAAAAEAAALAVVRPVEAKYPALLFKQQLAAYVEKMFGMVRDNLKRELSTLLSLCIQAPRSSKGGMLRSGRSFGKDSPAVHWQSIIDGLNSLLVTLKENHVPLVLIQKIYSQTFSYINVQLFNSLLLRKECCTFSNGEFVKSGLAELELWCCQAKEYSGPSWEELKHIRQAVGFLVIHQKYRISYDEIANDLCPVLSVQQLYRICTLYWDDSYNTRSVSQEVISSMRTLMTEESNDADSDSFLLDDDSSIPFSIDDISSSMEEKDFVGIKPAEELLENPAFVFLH
# [2] = molecular target: T2, MYA2 tail 2, aa1049-aa1450, fused with GST (Arabidopsis thaliana, UniProt Q9LKB9 1049-1450); test: pull-down
# T2 sequence: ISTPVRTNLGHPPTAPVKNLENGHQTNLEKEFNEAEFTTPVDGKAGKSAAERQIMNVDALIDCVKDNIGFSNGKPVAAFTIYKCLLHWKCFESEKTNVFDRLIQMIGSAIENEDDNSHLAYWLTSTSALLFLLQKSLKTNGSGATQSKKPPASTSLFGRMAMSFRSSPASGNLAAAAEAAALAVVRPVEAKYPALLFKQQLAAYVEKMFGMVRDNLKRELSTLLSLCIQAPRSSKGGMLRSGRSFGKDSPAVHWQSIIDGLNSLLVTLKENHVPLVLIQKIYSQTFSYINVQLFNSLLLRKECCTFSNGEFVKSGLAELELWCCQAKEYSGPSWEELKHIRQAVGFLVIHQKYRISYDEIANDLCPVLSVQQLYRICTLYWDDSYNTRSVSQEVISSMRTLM
Binder,fold amount bound with GTP over that without GTP or on control beads [1],fold amount bound with GTP over that without GTP or on control beads [2]
B1,2.6 fold,1.6 fold
B2,1.7 fold,
